Experimental data published in patent publication US20190284262A1 (Memorial Sloan Kettering, published 2019).
Like-named read-outs stand apart in the source and are kept apart here.

How the values were obtained:
[1] = molecular target: T1, HLA-A*02:01 on T2 cells alone (no peptide added) (human); experiment: flow cytometry, phage on T2 without peptide
T1 construct: TAP-deficient T2 cells without pulsed peptide; negative control target, and the HLA molecule whose stabilisation by peptides is read in the T2 stabilization assay; also called HLA-A*02 molecule; HLA-A2 molecule

[2] = molecular target: T1, HLA-A*02:01 on T2 cells alone (no …); experiment: flow cytometry, phage on T2 without peptide; secondary only 125, unstained 99.8
[3] = molecular target: T2, R3 (RHAMM-R3) peptide/HLA-A*02:01 complex on T2 cells (human); experiment: flow cytometry, phage on T2 + R3 peptide; secondary only 118, unstained 91.1
T2 construct: Control target of the phage staining of T2 cells; also called T2 cells pulsed with R3 peptide; RHAMM 3 (R3)

[4] = molecular target: T1, HLA-A*02:01 on T2 cells alone (no …); experiment: flow cytometry, phage on T2 without peptide; remark: listed apart in the source
[5] = molecular target: T1, HLA-A*02:01 on T2 cells alone (no …); experiment: flow cytometry, phage on T2 cells, no peptide
[6] = molecular target: T3, Foxp3-7 peptide/HLA-A*02:01 complex on the cell surface (human); experiment: flow cytometry, phage on T2 + Foxp3-7 peptide; secondary only 133, unstained 103
T3 construct: also called Foxp3-7/HLA-A2 complex

T2+EW = molecular target: T4, T2+EW (Homo sapiens, UniProt A*02:01); experiment: flow cytometry, phage on T2 + EW peptide; secondary only 113, unstained 94.7
T4 construct: on the surface of T2 cells; irrelevant control peptide; also called EW peptide/HLA-A*02:01 complex on T2 cells; T2 pulsed with EW peptide

[7] = molecular target: T1, HLA-A*02:01 on T2 cells alone (no …); experiment: flow cytometry, phage on T2 without peptide; secondary only 100, unstained 99.5
[8] = molecular target: T5, 017-mut2 peptide (…)/HLA-A*02:01 complex on T2 cells (human); experiment: flow cytometry, phage on peptide-loaded T2 cells
T5 construct: Alanine mutant at position 2, the anchor position; the peptide may load poorly onto HLA-A2; also called EXT017-mut2

[9] = molecular target: T3, Foxp3-7 peptide/HLA-A*02:01 complex on …; experiment: flow cytometry, phage on peptide-loaded T2 cells
[10] = molecular target: T6, 017-mut4 peptide (…)/HLA-A*02:01 complex on T2 cells (human); experiment: flow cytometry, phage on peptide-loaded T2 cells
T6 construct: Alanine mutant at position 4

[11] = molecular target: T7, 017-mut5 peptide (…)/HLA-A*02:01 complex on T2 cells (human); experiment: flow cytometry, phage on peptide-loaded T2 cells
T7 construct: Alanine mutant at position 5

[12] = molecular target: T8, 017-mut3 peptide (…)/HLA-A*02:01 complex on T2 cells (human); experiment: flow cytometry, phage on peptide-loaded T2 cells
T8 construct: Alanine mutant at position 3

[13] = molecular target: T9, 017-mut7 peptide (…)/HLA-A*02:01 complex on T2 cells (human); experiment: flow cytometry, phage on peptide-loaded T2 cells
T9 construct: Alanine mutant at position 7

[14] = molecular target: T10, 017-mut9 peptide (…)/HLA-A*02:01 complex on T2 cells (human); experiment: flow cytometry, phage on peptide-loaded T2 cells
T10 construct: Alanine mutant at position 9

[15] = molecular target: T11, 017-mut1 peptide (…)/HLA-A*02:01 complex on T2 cells (human); experiment: flow cytometry, phage on peptide-loaded T2 cells
T11 construct: Alanine mutant of Foxp3-7 at position 1, pulsed onto T2 cells; also called EXT017-mut1

[16] = molecular target: T12, 017-mut8 peptide (…)/HLA-A*02:01 complex on T2 cells (human); experiment: flow cytometry, phage on peptide-loaded T2 cells
T12 construct: Alanine mutant at position 8; also called TLI-A8

[17] = molecular target: T3, Foxp3-7 peptide/HLA-A*02:01 complex on …; experiment: flow cytometry, phage on T2 + Foxp3-7 peptide; secondary only 104, unstained 81.7
[18] = molecular target: T2, R3 (RHAMM-R3) peptide/HLA-A*02:01 …; experiment: flow cytometry, phage on T2 + R3 peptide (as the table names the samples); secondary only 109, unstained 80.9
[19] = molecular target: T13, EXT017 (Foxp3-7) peptide/HLA-A*02:01 complex, recombinant (human); experiment: SPR; printed under the head 'ka [1/Ms]': the heads of c3 and c4 are evidently interchanged
T13 construct: The BLI and SPR paragraphs only say 'EXT017 peptide/HLA-A*02:01 complex'; also called EXT017 peptide/HLA-A*02:01 complex; biotinylated single chain Foxp3p/HLA-A0201 complex

[20] = molecular target: T13, EXT017 (Foxp3-7) peptide/HLA-A*02:01 …; experiment: SPR
[21] = molecular target: T13, EXT017 (Foxp3-7) peptide/HLA-A*02:01 …; experiment: SPR; printed under the head 'kd [1/s]': the heads of c3 and c4 are evidently interchanged (0.005167/1.12E+07 = 0.46 nM)
[22] = molecular target: T13, EXT017 (Foxp3-7) peptide/HLA-A*02:01 …; experiment: SPR; printed under the head 'kd [1/s]': the heads of c3 and c4 are evidently interchanged (0.01222/5.97E+07 = 0.205 nM)

B1: (FoxP4)_#2 (scFv)
scFv (VL-linker-VH-His/HA tag): QSVVTQPPSVSGAPGQRVTISCTGSSSNIGAGFDVHWYQQLPGTAPKLLIYGNSNRPSGVPDRFSGSKSATSASLAITGLQAEDEADYYCQSYDSSLSGVVFGGGTKLTVLGSRGGGGSGGGGSGGGGSLEMAQVQLVQSGAEVKKPGSSVKVSCKTSGGTFSSYAISWVRQAPGQGLEWMGGIIPIFGTANYAQRFQGRVTITADESTNTVYMELSSLRSEDTAVYYCARESWYLDEWGQGTLVTVSSTSGQAGQHHHHHHGAYPYDVPDYAS
notes: also called EXT018-2; EXT018-02 scFv phage clone
Question: Which results are given for B1?
Answer: binding result [1]: no binding; Median:FITC-A [2]: 157; Median:FITC-A [3]: 147

B2: (FoxP4)_#5 (scFv)
scFv (VL-linker-VH-His/HA tag): QSVLTQPPSVSVAPGKTAKITCGGDNIGSKTVHWYQQKPGQAPALLIYYDSDRPSGIPERFSGSNSGNTATLSISRVEAGDEAGYFCQVWDGSSDHVIFGGGTKLTVLGSRGGGGSGGGGSGGGGSLEMAQMQLVQSGGGVVQPGRSLRLSCAASGFTFSSYAMHWVRQAPGKGLEWVAVISYDGSNKYYADSVKGRFTISRDNSKNTLYLQMNSLRAEDTAVYYCARDRHDYVMDVWGKGTTVTVSSTSGQAGQHHHHHHGAYPYDVPDYAS
notes: also called EXT018-5; EXT018-05 scFv phage clone
Question: Which results are given for B2?
Answer: binding result [1]: no binding; Median:FITC-A [2]: 155; Median:FITC-A [3]: 143

B3: (FoxP4)_#4 (scFv)
scFv (VL-linker-VH-His/HA tag): QSVLTQPPSVSGAPGQRVTISCTGSNSNIGADFDVHWYQQLPGTAPKLLIYGNNNRPSGVPDRFSGSKSDTSASLAITGLQAEDEADYYCQSYDISLNGYVFGTGTKVTVLGSRGGGGSGGGGSGGGGSLEMAQVQLQQWGAGLLKPSETLSLTCAVSGGSFSDYYWSWIRQPPGKGLEWIGEITHTGSTNYNPSLKSRVTISVDTSKNHFSLNLTSVTAADTAVYYCARSNGFYYDTWGQGTLVTVSSTSGQAGQHHHHHHGAYPYDVPDYAS
notes: also called EXT018-4; EXT018-04 scFv phage clone
Question: Does B3 bind [1]?
Answer: no binding

Question: What about the “Median:FITC-A” value [2] of the same binder?
Answer: 155

Question: What about the “Median:FITC-A” value [3] of the same binder?
Answer: 148

B4: EXT017-20 scFv phage clone (scFv)
scFv: QSVVTQPPSVSAAPGQKVTISCSGSSSNIGAGYDVHWYQQLPGTAPKLLIYGNSNRPSGVPDRFSGSKSGTSASLAITGLQAEDEADYYCQSYDSSLSGSVFGGGTKLTVLGSRGGGGSGGGGSGGGGSLEMAEVQLVQSGAEVKKPGSSVKVSCKASGGTFSSYAISWVRQAPGQGLEWMGGIIPIFGTANYAQKFQGRVTITADESTSTAYMELSSLRSEDTAVYYCARYSYKYGELDTWGQGTLVTVSSTSGQAGQHHHHHHGAYPYDVPDYAS
notes: full-length scFv with His+HA tags; also called EXT017-20 phage
Question: Does B4 bind [4]?
Answer: no binding

Question: And the MFI [5]?
Answer: 91.3

Question: What about the “Median:FITC-A” value [6] of the same binder?
Answer: 1220

Question: What about the “Median:FITC-A” value (T2+EW) of the same binder?
Answer: 139

Question: What about the “Median:FITC-A” value [7] of the same binder?
Answer: 136

Question: And the MFI [8]?
Answer: 96

Question: And the MFI [9]?
Answer: 17100

Question: What about the MFI [10] of the same binder?
Answer: 93.7

Question: And the MFI [11]?
Answer: 95

Question: And the MFI [12]?
Answer: 96.4

Question: What about the MFI [13] of the same binder?
Answer: 94.9

Question: What about the MFI [14] of the same binder?
Answer: 95.6

Question: And the MFI [15]?
Answer: 4070

Question: And the MFI [16]?
Answer: 11100

Question: And the “Median:FITC-A” value [17]?
Answer: 2300

Question: What about the “Median:FITC-A” value [18] of the same binder?
Answer: 128

B5: EXT017-32 mouse IgG1 (antibody, V domains shown)
VH: EVQLVESGGGVVQPGRSLRLSCAASGFTFNNHAMHWVRQAPGKGLEWVAVISFDGDDKFYADSVKGRFTISRDNSRNTLFLQMNNLRPEDTAVYYCSRDPYHFASGSYSYFDYWGQGTLVTVSS
VL: QSVLTQPPSVSVAPGKTARITCGGNNIGSKSVHWYQQKPGQAPVLVIYYDSDRPSGIPERFSGSNSGNTATLTISRVEAGDEADYYCQVWDSSSDHYVFGTGTKVTVLG
notes: Mouse IgG1 format of clone #32 made by Eureka Therapeutics; conjugated to APC for flow cytometry of Tregs; also called EXT017-32 mIgG; EXT017-32 mIgG1
Question: How did the koff [19] turn out when B5 was run?
Answer: 0.00517 s⁻¹

Question: And the Kd [20]?
Answer: 0.462 nM

Question: What about the kon [21] of the same binder?
Answer: 1.12e+07 M⁻¹ s⁻¹

B6: EXT017-32 human IgG1 (antibody, V domains shown)
VH: EVQLVESGGGVVQPGRSLRLSCAASGFTFNNHAMHWVRQAPGKGLEWVAVISFDGDDKFYADSVKGRFTISRDNSRNTLFLQMNNLRPEDTAVYYCSRDPYHFASGSYSYFDYWGQGTLVTVSS
VL: QSVLTQPPSVSVAPGKTARITCGGNNIGSKSVHWYQQKPGQAPVLVIYYDSDRPSGIPERFSGSNSGNTATLTISRVEAGDEADYYCQVWDSSSDHYVFGTGTKVTVLG
notes: Full-length human IgG1 with matching human lambda or kappa light chain constant region; Fc-enhanced (afucosylated); also called EXT017-32 hIgG; EXT017-32-hIgG1
Question: How did the koff [19] turn out when B6 was run?
Answer: 0.0122 s⁻¹

Question: What about the Kd [20] of the same binder?
Answer: 0.205 nM

Question: And the kon [22]?
Answer: 5.97e+07 M⁻¹ s⁻¹
